The values below come from IntAct's records for PubMed 16230351.

B1: E3 ubiquitin-protein ligase SIAH1 (Homo sapiens), Q8IUQ4 (parent)
chain: MSRQTATALPTGTSKCPPSQRVPALTGTTASNNDLASLFECPVCFDYVLPPILQCQSGHLVCSNCRPKLTCCPTCRGPLGSIRNLAMEKVANSVLFPCKYASSGCEITLPHTEKADHEELCEFRPYSCPCPGASCKWQGSLDAVMPHLMHQHKSITTLQGEDIVFLATDINLPGAVDWVMMQSCFGFHFMLVLEKQEKYDGHQQFFAIVQLIGTRKQAENFAYRLELNGHRRRLTWEATPRSIHEGIATAIMNSDCLVFDTSIAQLFAENGNLGINVTISMC
partner: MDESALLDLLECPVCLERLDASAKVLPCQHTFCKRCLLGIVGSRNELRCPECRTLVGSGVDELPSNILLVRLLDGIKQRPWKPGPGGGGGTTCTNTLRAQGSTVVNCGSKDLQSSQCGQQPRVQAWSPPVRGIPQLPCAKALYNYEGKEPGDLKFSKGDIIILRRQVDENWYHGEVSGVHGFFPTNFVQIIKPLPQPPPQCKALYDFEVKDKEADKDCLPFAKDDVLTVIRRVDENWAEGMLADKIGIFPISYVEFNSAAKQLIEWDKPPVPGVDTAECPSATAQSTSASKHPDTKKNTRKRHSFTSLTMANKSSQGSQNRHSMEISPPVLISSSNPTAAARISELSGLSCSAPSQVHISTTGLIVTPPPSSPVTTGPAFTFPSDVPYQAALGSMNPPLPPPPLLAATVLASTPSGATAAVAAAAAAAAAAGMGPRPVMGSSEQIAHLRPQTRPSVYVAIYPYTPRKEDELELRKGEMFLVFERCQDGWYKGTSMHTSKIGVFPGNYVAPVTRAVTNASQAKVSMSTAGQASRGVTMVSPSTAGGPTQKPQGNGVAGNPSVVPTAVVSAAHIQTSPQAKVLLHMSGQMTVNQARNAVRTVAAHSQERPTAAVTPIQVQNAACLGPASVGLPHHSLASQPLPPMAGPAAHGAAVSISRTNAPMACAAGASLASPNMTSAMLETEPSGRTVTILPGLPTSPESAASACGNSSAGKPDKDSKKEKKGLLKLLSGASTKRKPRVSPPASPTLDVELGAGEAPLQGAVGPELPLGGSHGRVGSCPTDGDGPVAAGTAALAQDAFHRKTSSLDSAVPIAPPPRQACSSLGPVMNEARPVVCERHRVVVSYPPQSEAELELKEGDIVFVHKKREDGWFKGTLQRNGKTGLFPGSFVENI

Variants of B1 are the subject of the assay. Conditions: with sh3r1_mouse Sh3rf1, Q69ZI1.
As to C41S;C44S, the “effect of a mutation on the interaction” value is “decreasing interaction”.
